Results reported in patent publication US20190030114.

T1: striatal-enriched protein tyrosine phosphatase (STEP), P54830
T1 chain: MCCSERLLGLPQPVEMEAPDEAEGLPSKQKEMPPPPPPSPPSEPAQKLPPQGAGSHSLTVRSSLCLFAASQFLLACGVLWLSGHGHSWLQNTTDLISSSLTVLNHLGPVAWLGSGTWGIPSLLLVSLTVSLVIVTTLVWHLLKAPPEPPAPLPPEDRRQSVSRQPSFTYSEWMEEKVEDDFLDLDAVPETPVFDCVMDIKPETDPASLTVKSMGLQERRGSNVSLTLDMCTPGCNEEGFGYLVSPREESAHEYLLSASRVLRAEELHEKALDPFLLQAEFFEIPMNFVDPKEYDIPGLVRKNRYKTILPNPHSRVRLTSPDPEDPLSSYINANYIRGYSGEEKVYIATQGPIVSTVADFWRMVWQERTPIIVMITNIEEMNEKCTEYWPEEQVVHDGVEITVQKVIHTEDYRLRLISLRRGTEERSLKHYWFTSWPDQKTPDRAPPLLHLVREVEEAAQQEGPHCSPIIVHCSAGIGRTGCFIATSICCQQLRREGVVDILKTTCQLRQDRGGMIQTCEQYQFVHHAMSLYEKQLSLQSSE

B1: calpain-2 (m-calpain), Mus musculus (protein)
chain: SHERAIKYLNQDYETLRNECLEAGALFQDPSFPALPSSLGYKELGPYSSKTRGIEWKRPTEICADPQFIIGGATRTDICQGALGDCWLLAAIASLTLNEEILARVVPPDQSFQENYAGIFHFQFWQYGEWVEVVVDDRLPTKDGELLFVHSAEGSEFWSALLEKAYAKINGCYETLSGGATTEGFEDFTGGIAEWYELRKPPPNLFKIIQKALEKGSLLGCSIDITSAADSEAVTYQKLVKGHAYSVTGAEEVESSGSLQKLIRIRNPWGQVEWTGKWNDNCPSWNTVDPEVRANLTERQEDGEFWMSFSDFLRHYSRLEICNLTPDTLTCDSYKKWKLTKMDGNWRRGSTAGGCRNYPNTFWMNPQYLIKLEEEDEDEEDGGRGCTFLVGLIQKHRRRQRKMGEDMHTIGFGIYEVPEELTGQTNIHLGKNFFLTTRARERSDTFINLREVLNRFKLPPGEYVLVPSTFEPHKDGDFCIRVFSEKKADYQAVDDEIEANIEEIDANEEDIDDGFRRLFVQLAGEDAEISAFELQTILRRVLAKRQDIKSDGFSIETCKIMVDMLDEDGSGKLGLKEFYILWTKIQKYQKIYREIDVDRSGTMNSYEMRKALEEAGFKLPCQLHQVIVARFADDELIIDFDNFVRCLVRLETLFKIFKQLDPENTGTIQLNLASWLSFSVL
B2: calpain-1 (µ-calpain), Mus musculus (protein)
chain: MTEELITPVYCTGVSAQVQKKRDKELGLGRHENAIKYLGQDYETLRARCLQSGVLFQDEAFPPVSHSLGFKELGPHSSKTYGIKWKRPTELMSNPQFIVDGATRTDICQGALGDCWLLAAIASLTLNETILHRVVPYGQSFQDGYAGIFHFQLWQFGEWVDVVIDDLLPTKDGKLVFVHSAQGNEFWSALLEKAYAKVNGSYEALSGGCTSEAFEDFTGGVTEWYDLQKAPSDLYQIILKALERGSLLGCSINISDIRDLEAITFKNLVRGHAYSVTGAKQVTYQGQRVNLIRMRNPWGEVEWKGPWSDSSYEWNKVDPYEREQLRVKMEDGEFWMSFRDFIREFTKLEICNLTPDALKSRTLRNWNTTFYEGTWRRGSTAGGCRNYPATFWVNPQFKIRLEEVDDADDYDNRESGCSFLLALMQKHRRRERRFGRDMETIGFAVYQVPRELAGQPVHLKRDFFLANASRAQSEHFINLREVSNRIRPPPGEYIVVPSTFEPNKEGDFLLRFFSEKKAGTQELDDQIQANLPDEKVLSEEEIDDNFKTLFSKLAGDDMEISVKELQTILNRIISKHKDLRTNGFSLESCRSMVNLMDRDGNGKLGLVEFNILWNRIRNYLTIFRKFDLDKSGSMSAYEMRMAIEAAGFKLNKKLHELIITRYSEPDLAVDFDNFVCCLVRLETMFRFFKLLDTDLNGVVTFDLFKWLQLTMFA

How the values were obtained:
[1] = target: T1, striatal-enriched protein tyrosine …

Protein	SBDP levels, immunoblot of mouse retinal extracts 6 h after intravitreal NMDA injection (spectrin, P16546)	STEP33 (cleavage product of STEP), Western blot of retina 3 h after IOP elevation [1]
B1	Levels of SBDP were significantly increased; injection of C2l significantly suppressed NMDA-induced changes in SBDP	STEP33 was present in WT and calpain-1 KO mice but not in C2l-injected WT mice following increased IOP
B2	–	STEP33 was present in WT and calpain-1 KO mice (no part of calpain-1)
